Assay: soluble on expression in E. coli; label from the status in PepcDB or PDB records

Sequence | soluble on expression in E. coli
SAESWLRLSGAGPAEEAGPEGGLEEPDALDDSLTSLQWLQEFSILNAKAPALPPGGTDPHGYHQVPGSAAPGSPLAADPACLGQPHTPGKPTSSCTSRSAPPGLQAPPPDDVDYATNPHVKPPYSYATLICMAMQASKATKITLSAIYKWITDNFCYFRHADPTWQNSIRHNLSLNKCFIKVPREKDEPGKGGFWRIDPQYAERLLSGAFKKRRLPPVHIHPAFARQAAQEPSAVPRAGPLTVNTEAQQLLREFEEATGEAGWGAGEGRLGHKRKQPLPKRVAKVPRPPSTLLPTPEEQGELEPLKGNFDWEAIFDAGTLGGELGALEALELSPPLSPASHVDVDLTIHGRHIDCPATWGPSVEQAADSLDFDETFLATSFLQHPWDESGSGCLPPEPLFEAGDATLASDLQDWASVGAFL | soluble
MESLTLQPIARVDGTINLPGSKSVSNRALLLAALAHGKTVLTNLLDSDDVRHMLNALTALGVSYTLSADRTRCEIIGNGGPLHAEGALELFLGNAGIAMRSLAAALCLGSNDIVLTGEPRMKERPIGHLVDALRLGGAKITYLEQENYPPLRLQGGFTGGNVDVDGSVSSQFLTALLMTAPLAPEDTVIRIKGDLVSKPYIDITLNLMKTFGVEIENQHYQQFVVKGGQSYQSPGTYLVEGDASSASYFLAAAAIKGGTVKVTGIGRNSMQGDIRFADVLEKMGATICWGDDYISCTRGELNAIDMDMNHIPDAAMTIATAALFAKGTTTLRNIYNWRVKETDRLFAMATELRKVGAEVEEGHDYIRITPPEKLNFAEIATYNDHRMAMCFSLVALSDTPVTILDPKCTAKTFPDYFEQLARISQAA | soluble
MGHHKAMPYADVAAFIIELRKREAVAATALEFTILTAARSGETLGAKWHEIDWKDKIWTVPAERMKAAREHRVPLSSRTITILKKLAEFGSDENSFVFPGQKPGKPLSVMAMDMVLRRMEVDVTVHGFRSSFRDWCGEVSNFPRDVAEAALAHLEHHHHHH | soluble
MKKLLFAIDDTEACERAAQYILDMFGKDADCTLTLIHVKPEFMLYGEAVLAAYDEIEMKEEEKAKLLTQKFSTFFTEKGINPFVVIKEGEPVEMVLEEAKDYNLLIIGSSENSFLNKIFASHQDDFIQKAPIPVLIVK | soluble
MGSDKIHHHHHHMFEEIAYMILADGNEKSRFEANAYLRAARSLRSITEDVEDIYNRGGIEALTSVEGIGKKIASYIEEYIKTGRIKRYDDLKIRYPVDFRDLSRVQGLGPRKIVSLYKYAGVKNIDDLKAALADHRIASIPGFGEKSEKEIAENIQIAEMSFRRIPLPQGYRTAMEIADEIERAAGTVRVSVAGSIRRMRDTVGDIDLLCVTSDPPRAIAAFTGSKHCQRVVSSGEKKVTIATDAGVTCDLRIIDKGSFGSALQYFTGSKDHNIKLRKIAIDRGLKLNEYGLFRGNSNLVENQGEEKIYAELGMQYIPPELREDRGEIDRAISMTLPELVEAGDIRGDLYISYEFIRKYGADVLKKMERLQYFGVVLGSPEEKEGIKSVMNDGRIFLGIELTSKTYAEDAGEFDFTVLDLSGFPDEASARGAIESVKPTFIRNVTGRTFSSGRKMDPANIFEAAAKSGSAVMITASNDAFDPVAEDIMPHREGLMFALASFAQRPDDLGDMTFGIGIARRAWISKDRIINTMDYEKIAKIMRRP | not soluble
MSLGEAEARVVLNMNTGWAFHRGEVESGGQPGLDDSGWIAAIIPHIMQLEKKHCGGDIIYDGVGWYRRTFRVPSQYKDKQIKISFEGVMNACEVYLNGQKISAHRGGYVGFVTDITTRINWDRDNLLAVRVSAEYDPLTPPGKPQAGMDFYYYSGIYRDVEMVISDPLHITHALEEEEVAGGGIFVTYPVVGKEKAVTHVKAHVRNEGKRKRKAQLRTQLIDKSGKIVACQLTPFRLSAGEAIHLEQNLEIVHPSLWHPYDPNLYTLQNEIVENGKVVDCHTESIGIRTIAYTRDGGFYINGESLYLRGANRHQAFAHIGDAAANSMQERDVIDLKRGGCNAVRAAHYPQDPAFLAACDKYGLLVVECIPGWQYFKNDSTFISRLYEVGKQMIRRDRNHPSVILWETALNESRYPAEIARNLYAIAHIEYPGDQMYTAGDYFGHADRVDCFDVFYKQVSRFPKDGDVMSNYPEDQIAVKPLFCREWGDGVGEKPRVSLMENEEEQLKQCRGRFLQLNGHGYFDWCMLDANPRMGGHFLWSYNDYARGAEQETMFCGIVDINRYPKFSYYMMQSMRDKEISQEGHHHHHH | soluble
MANSSPCMKAVRVPKSEAEQVRRLAEKLGVKDKSRRITATGDYVEIPIIDSAESFFKGYTIVEQDNPVFSRKRSLREILRGKVPEELIPTNYKVIGDIVVVKLDERAREYAKVIGEALMQINPCKAVWCDYGRYGMKRKPRMELIAGEGSVTEHRENGCRFRIDVAKVMFSLGNQAERMRIARLVEDGEVVVDMFAGIGYFSIPIAVHSKARRIYSIEINPESYKLLLENIKLNDVGNIVPILGDSQFVTPEGVADRVVMGHIYCHDYLHTAIRALKERGVVHYHEATPEAVIDRPVRRVEKACRKMGKKCRILGFKKVKNYSPGVYHVVVDAEVY | not soluble
LFEMGLQRYLESGLRNESENLLVALVRGPAGLQLDDHRLSGAYQRPLSGHYFRMDLPQGHWRSRSLWDFELPQPGVGLHANLELGKTVQSLLMLTSEYRKFGKQISITVAQDYTPVRASFR | not soluble
MRLSFLTLQRRNAVGDALRHKSALRRILKTGRRASGTACDAERRTIVEKLPHDSLEHHHHHH | not soluble
GPGSMTDYIRDGQAIYDRSFAIIRAEADLRHIPADLEKLAVRVIHACGMVDVANDLAFSEGAGKAGRNALLAGAPILCDARMVAEGITRSRLPADNRVIYTLSDPSVPELAKKIGNTRSAAALDLWLPHIEGSIVAIGNAPTALFRLFELLDAGAPKPALIIGMPVGFVGAAESKDELAANSRGVPYVIVRGRRGGSAMTAAAVNALASERE | soluble
MEKVHAALTNPAYWDFIVKNLSPEPGEVHEFTEANGGAVATLFEVLPQELLPEAIRAMISQALKVKRVVTVGGLNGTSAPLSYTADVKGTPVDFKGEISMNGLGNTTTLSYANEITVNIPLMGAAIEPKVGQALADLFQNEGDLTSKWISKNL | not soluble
DIELTQTPVSLSASVGETVTITCRASENIYSYLAWYQQKQGKSPQFLVYNAKTLGEGVPSRFSGSGSGTQFSLKINSLLPEDFGSYYCQHHYGTPPLTFGGGTKLEIKREQKLISEEDLM | soluble
MGSDKIHHHHHHMDRILTFDCYGTLIDTKPVFDAISNIAKNNILNSKDAVNIYVNYEDRLMYGETYIPYDKLIKQVLEYCDMELVTNVFSKSYDEIISVHKRLKPFKEVVESLEKIHKKGYELALMSNSVHDIIDYNLDALGNVFNNVFLSEDIHAYKPQLKFFKYVEERLELKQKKHCHIAKGYWWDIVPCSKLGWRKIWVNRENKKGNKCHEPYEEVHTLDEVINLI | not soluble
MSLRNIKWAILGPGTIARDFAKAISEVDNNIYAVASRNIERAKKFANEYKAEKFYGDYDEMLRDENIDVVYISTPHCNHYEYIIKSLENNKHVFCEKAITVNGNQLKEIVDLANKKNLIVREAMTIYHMPLYKKLRELVDEGKIGKVKMIQVSFGSLKEYDVNNRFFSKDLAGGALLDIGTYALSFTRYFLSSQPEEILTTVKKFETGVDEQSGIILKNAEDEMAVISLTMRAKQPKRGVVAGEKAYITVENFPRADKATITYPDGSVEVVEAGETDRALVYEVQDMKACILNKDTDYTLQLSLGVMNIMDEVRSQWGIRYPFEEGHHHHHH | soluble
MGSDKIHHHHHHMIKAMYSGVSGMKANQTKLDVIGNNVANAGTTSFKKSSARITDSFYQTVLYASAPTAALGGTNLGQVGVGSKISSINKDMVQGNVQPTNRPSDLMIDGDGYLPVVRQGTVMYTRDGSFNLDTGFKAADGALKNIKGGRLVNGDGYMLQGMIYDGEYKADTGEFVKKGDAKGKEPIVIPLQSISPKDGTVQNVLEYNISKDGTVEFLLSDGQRTQFVYDIPDGAKVGDTPAGIDKLKGTIQKVQIYAFQNPAGLDAAGGNLFKPSANSGDPQIAGATGTIIQGAIEASNVDIAEEFTEMIIASRSFQANSKIISTSDEILQEIINLKR | not soluble
QLVWGPDLSEKASAQRTRVFVDAARRGEIYDNTGQLLAYTMQARSLTASPKQLRKEIEYTAKIELQDEKEYSSWDENQRKKKIEDKVDSYLEEYSNEIPKIIKDSEASANDIKSKDILKKLKADTSYEVLVRNVDPDVAENIAQKFHGIAADLQQIRQYPNGAVAENVIGKISQDGQGQFGFESSNNSVLSGIDGRKTLDVAASGEVIPGSLRDEVPATNGANVTLTLDLDMQTYVQQQLEQAVSNSGAQSASAVVLDVKTGKVLTMANSGTINPNGDIEKQLKDNKSFENTTISSPFEPGSVAKIITAAGVIEDGKSTPDEVLQVPGSIEMSGVNVRDAWEHGTVGYTTTGIFGKSSNVGTLMLAQRLGEQRFNDLLHRFGIGQNTGIELPVESQGLLPDISQ | not soluble
SNAAKPLPKEMEDFVQSSGENGVVVFSLGSMVSNMTEERANVIASALAQIPQKVLWRFDGNKPDTLGLNTRLYKWIPQNDLLGHPKTRAFITHGGANGIYEAIYHGIPMVGIPLFADQPDNIAHMKARGAAVRVDFNTMSSTDLLNALKRVINDPSYKENVMKLSRIQHD | soluble
KLSPMIDLWDTLQSLLHVQELHVVAAHGEVKELLVRMSLNEATIPPEKVPIHAINLLLEDTVIPFIFTMEEERSISIPYTDSIDKYVYEPHTALLKAGAFKTVAYRLGLRKLHPNSHLYTSEAYESAFPGRTFVLEEIIPFSTSVLKQLRKVVPQASISCRNFPLSPIELRQRSKMADGGEKTLMGTTMADGKKVLLLLRKAE | not soluble
MSLIVVTGGAGFIGSHVVDKLSESNEIVVIDNLSSGNEEFVNEAARLVKADLAADDIKDYLKGAEEVWHIAANPDVRIGAENPDEIYRNNVLATYRLLEAMRKAGVSRIVFTSTSTVYGEAKVIPTPEDYPTHPISLYGASKLACEALIESYCHTFDMQAWIYRFANVIGRRSTHGVIYDFIMKLKRNPEELEILGNGEQNKSYIYISDCVDAMLFGLRGDERVNIFNIGSEDQIKVKRIAEIVCEELGLSPRFRFTGGDRGWKGDVPVMLLSIEKLKRLGWKPRYNSEEAVRMAVRDLVEDLDEEGHHHHHH | soluble
KRLILLDYDGTLVPFQKRPEDASPTPQLLDTLQKLTADPLNHVVINSGRDHFTLEKWLGALPISFAAEHGAFYKENGVWHKNVHAQEWSPGLLSILKLFVSKTPRSHLEVKETALAWHYRETDAWLGRLRAQQLVNSLISICLKQNLQIMQGNKVIEIKSPEFTKGSEVNRLLLATRYDFILAMGDDTTDDDMFKALPVTAVTVKIGTASESARYNLPVQTDTLPFLQRLTDKSVVKAALKSGLKGQLSSAIDFLKRIINH | not soluble
SLVKLSTPLRVVTTLPHQPGRTGYIVFKKVPESFRCDSIASFYRRVRRSMGLREAVVFLTAAEVDRPLHEVIDEPETHIIATVGLKPPACPGGTAGAPRPGTINIAVATSAGLSRAGAIDLLRVVAEAKAAAAAEALLPCLHRATGTATDAIAVLHTPGATDFSGFYTRLGGLVGRSLYFALVDAAVARRGPDSLLRALTGMSMEGLLELFRRVYMQSPIPGVPVEEALGRAGRMLERMMRDPNVAALLIAARELDLHGSAGAIPGLSRSGYKGDSKAIVADELLAAALAEYLAGFKGLLATIWVEKLKSMGLADAGLPMFMDDMVSAVVGSLVSRLHDEVREG | soluble
SSGLSESKQTHVHLRNVDAATLQIIITYAYTGNLAMNDSTVEQLYETACFLQVEDVLQRCREYLIKKINAENCVRLLSFADLFSCEELKQSAKRMVEHKFTAVYHQDAFMQLSHDLLIDILSSDNLNVEKEETVREAAMLWLEYNTESRSQYLSSVLSQIRIDALSEVTQRAWFQGLPPNDKSVVVQGLYKSMPKFFKPRLGMTKEEMMIFIEASSENPCSLYSSVCYSPQAEKVYKLCSPPADLHKVGTRCNS | soluble

From the DeepSol protein solubility set
